Measurements: article PMC12510028, “A biophysical and molecular characterization of the interaction between the Alzheimer risk factor BIN1 and the neuronal scaffold protein p140Cap” (The Journal of Biological Chemistry, 2025)

Tested on: p140Cap
Experiment: GST pull-down from mouse brain homogenate, p140Cap captured
Format: binding
Conditions: percent pulldown relative to input, two independent experiments, unpaired t test p = 0.0035
Procedure: For these experiments, we prepared glutathione S-transferase (GST) control and GST-tagged BIN1-SH3 domain fusion proteins coupled to glutathione-Sepharose and incubated them with mouse brain homogenates to capture bound proteins. Western blot analysis confirmed that p140Cap from the brain extract bound specifically to the BIN1-SH3 fusion protein, but not to the GST control (Fig. 7A).
To further investigate the contributions of electrostatic interactions in BIN1 SH3 domain–mediated protein binding, we conducted GST pull-down assays with mutant BIN1 SH3 domain constructs that lacked charged residues. […]
We used a previously published method with some modifications ([22]). […] The samples were analyzed by immunoblotting with antibodies against total tau (Dako #A0024; 1:1000) and p140Cap (Defilippi’s lab mAb; 1:2000) ([44]). After incubation with infrared dye–conjugated secondary antibodies, signals were recorded using the Odyssey infrared imaging system (LI-COR Biosciences) and quantified with ImageStudio6.0. The % GST pulldown was calculated by comparing signal intensities of p140Cap or tau in the input (10 μg) with the corresponding pull-down signal intensity from 0.5 mg protein and then multiplying by 100.

B1: BIN1-SH3 fusion protein: GST-tagged WT human BIN1-SH3 domain fusion protein coupled to glutathione-Sepharose (protein)
chain: GFMFKVQAQHDYTATDTDELQLKAGDVVLVIPFQNPEEQDEGWLMGVKESDWNQHKELEKCRGVFPENFTERVP
modifications: left off: 6xHis, N-terminal, state not stated | GST, N-terminal, kept
notes: GST-tagged WT human BIN1-SH3 domain fusion protein coupled to glutathione-Sepharose
- fold more p140Cap captured than tau: ~9.4 fold
